Measured values taken from article PMC3354962 (Advances in bioscience and biotechnology (Print), 2011).

Tests used:
proteases = assay: Protease digestion, summary over the panel of proteases; format: in vitro ADME; conditions: of the 9 proteases tested; 1 µU enzyme, 1 hr, 37°C, SDS-PAGE
Trypsin = assay: Protease digestion, SDS-PAGE: trypsin; format: in vitro ADME; conditions: 1 µU trypsin, 1 hr, 37°C, Coomassie, Figure 1

Substance	Number of proteases the material was resistant to (proteases)	Appearance of peptide bands on SDS-PAGE after digestion by trypsin (Trypsin)
Griffithsin [GRFT]	8	–
PSC-RANTES	–	reduced intensity or density rather than disappearing
